Experimental data: doi:10.1101/385401 (bioRxiv, 2018)
Like-named read-outs stand apart in the source and are kept apart here.

Columns and labels:
crystal structure = biological target: the molecule itself; test: crystal structure
[1] = biological target: the molecule itself

B1: Escherichia coli (Ec) dGTPase, wild type (enzyme, UniProt P15723 1-505, looked up)
chain: MAQIDFRKKINWHRRYRSPQGVKTEHEILRIFESDRGRIINSPAIRRLQQKTQVFPLERNAAVRTRLTHSMEVQQVGRYIAKEILSRLKELKLLEAYGLDELTGPFESIVEMSCLMHDIGNPPFGHFGEAAINDWFRQRLHPEDAESQPLTDDRCSVAALRLRDGEEPLNELRRKIRQDLCHFEGNAQGIRLVHTLMRMNLTWAQVGGILKYTRPAWWRGETPETHHYLMKKPGYYLSEEAYIARLRKELNLALYSRFPLTWIMEAADDISYCVADLEDAVEKRIFTVEQLYHHLHEAWGQHEKGSLFSLVVENAWEKSRSNSLSRSTEDQFFMYLRVNTLNKLVPYAAQRFIDNLPAIFAGTFNHALLEDASECSDLLKLYKNVAVKHVFSHPDVERLELQGYRVISGLLEIYRPLLSLSLSDFTELVEKERVKRFPIESRLFHKLSTRHRLAYVEAVSKLPSDSPEFPLWEYYYRCRLLQDYISGMTDLYAWDEYRRLMAVEQ
- stoichiometry N (crystal structure): 6

B2: Ec-dGTPase Y272A variant (enzyme, Escherichia coli, UniProt P15723 1-505, looked up)
chain: MAQIDFRKKINWHRRYRSPQGVKTEHEILRIFESDRGRIINSPAIRRLQQKTQVFPLERNAAVRTRLTHSMEVQQVGRYIAKEILSRLKELKLLEAYGLDELTGPFESIVEMSCLMHDIGNPPFGHFGEAAINDWFRQRLHPEDAESQPLTDDRCSVAALRLRDGEEPLNELRRKIRQDLCHFEGNAQGIRLVHTLMRMNLTWAQVGGILKYTRPAWWRGETPETHHYLMKKPGYYLSEEAYIARLRKELNLALYSRFPLTWIMEAADDISACVADLEDAVEKRIFTVEQLYHHLHEAWGQHEKGSLFSLVVENAWEKSRSNSLSRSTEDQFFMYLRVNTLNKLVPYAAQRFIDNLPAIFAGTFNHALLEDASECSDLLKLYKNVAVKHVFSHPDVERLELQGYRVISGLLEIYRPLLSLSLSDFTELVEKERVKRFPIESRLFHKLSTRHRLAYVEAVSKLPSDSPEFPLWEYYYRCRLLQDYISGMTDLYAWDEYRRLMAVEQ
- stoichiometry N [1]: 6

B3: selenium methionine labelled Ec-dGTPase (enzyme, Escherichia coli, UniProt P15723 1-505, looked up)
chain: MAQIDFRKKINWHRRYRSPQGVKTEHEILRIFESDRGRIINSPAIRRLQQKTQVFPLERNAAVRTRLTHSMEVQQVGRYIAKEILSRLKELKLLEAYGLDELTGPFESIVEMSCLMHDIGNPPFGHFGEAAINDWFRQRLHPEDAESQPLTDDRCSVAALRLRDGEEPLNELRRKIRQDLCHFEGNAQGIRLVHTLMRMNLTWAQVGGILKYTRPAWWRGETPETHHYLMKKPGYYLSEEAYIARLRKELNLALYSRFPLTWIMEAADDISYCVADLEDAVEKRIFTVEQLYHHLHEAWGQHEKGSLFSLVVENAWEKSRSNSLSRSTEDQFFMYLRVNTLNKLVPYAAQRFIDNLPAIFAGTFNHALLEDASECSDLLKLYKNVAVKHVFSHPDVERLELQGYRVISGLLEIYRPLLSLSLSDFTELVEKERVKRFPIESRLFHKLSTRHRLAYVEAVSKLPSDSPEFPLWEYYYRCRLLQDYISGMTDLYAWDEYRRLMAVEQ
modifications: selenium methionine labelled
- stoichiometry N (crystal structure): 6

B4: Ec-dGTPase H126A variant (enzyme, Escherichia coli, UniProt P15723 1-505, looked up)
chain: MAQIDFRKKINWHRRYRSPQGVKTEHEILRIFESDRGRIINSPAIRRLQQKTQVFPLERNAAVRTRLTHSMEVQQVGRYIAKEILSRLKELKLLEAYGLDELTGPFESIVEMSCLMHDIGNPPFGAFGEAAINDWFRQRLHPEDAESQPLTDDRCSVAALRLRDGEEPLNELRRKIRQDLCHFEGNAQGIRLVHTLMRMNLTWAQVGGILKYTRPAWWRGETPETHHYLMKKPGYYLSEEAYIARLRKELNLALYSRFPLTWIMEAADDISYCVADLEDAVEKRIFTVEQLYHHLHEAWGQHEKGSLFSLVVENAWEKSRSNSLSRSTEDQFFMYLRVNTLNKLVPYAAQRFIDNLPAIFAGTFNHALLEDASECSDLLKLYKNVAVKHVFSHPDVERLELQGYRVISGLLEIYRPLLSLSLSDFTELVEKERVKRFPIESRLFHKLSTRHRLAYVEAVSKLPSDSPEFPLWEYYYRCRLLQDYISGMTDLYAWDEYRRLMAVEQ
- stoichiometry N [1]: 6

B5: Ec-dGTPase E129A variant (enzyme, Escherichia coli, UniProt P15723 1-505, looked up)
chain: MAQIDFRKKINWHRRYRSPQGVKTEHEILRIFESDRGRIINSPAIRRLQQKTQVFPLERNAAVRTRLTHSMEVQQVGRYIAKEILSRLKELKLLEAYGLDELTGPFESIVEMSCLMHDIGNPPFGHFGAAAINDWFRQRLHPEDAESQPLTDDRCSVAALRLRDGEEPLNELRRKIRQDLCHFEGNAQGIRLVHTLMRMNLTWAQVGGILKYTRPAWWRGETPETHHYLMKKPGYYLSEEAYIARLRKELNLALYSRFPLTWIMEAADDISYCVADLEDAVEKRIFTVEQLYHHLHEAWGQHEKGSLFSLVVENAWEKSRSNSLSRSTEDQFFMYLRVNTLNKLVPYAAQRFIDNLPAIFAGTFNHALLEDASECSDLLKLYKNVAVKHVFSHPDVERLELQGYRVISGLLEIYRPLLSLSLSDFTELVEKERVKRFPIESRLFHKLSTRHRLAYVEAVSKLPSDSPEFPLWEYYYRCRLLQDYISGMTDLYAWDEYRRLMAVEQ
- stoichiometry N [1]: 6
